Among the data in US20240002475A1 (ROCKEFELLER UNIVERSITY, published 2024) are Kd values, retold here.

In the test the target is green fluorescent protein (GFP), recombinant (Aequorea victoria, UniProt P42212 1-238 = GFP). Nature of the test: not stated there (SPR or in vitro binding assay).

B1: LaG-41 (VHH)
VHH: DVQLVESGGGLVQAGGSLRLSCAASGPTGAMAWFRQAPGKEREFVGGISGSETDTYYVDSVKGRFTVDRDNVKNTVYLQMNSLKPEDTAVYYCAARRRITLFTSRTDYDFWGRGTQVTV
For B1, the Kd amounted to 900 pM.

The Kd is a measure of binding affinity in units of concentration.
